According to paper PMC10786891, “Massively parallel profiling of RNA-targeting CRISPR-Cas13d”:

Target: T1, EsCas13d, nuclease-dead (Eubacterium siraeum, UniProt B0MS50, R295A;H300A;R849A;H854A)
T1 sequence: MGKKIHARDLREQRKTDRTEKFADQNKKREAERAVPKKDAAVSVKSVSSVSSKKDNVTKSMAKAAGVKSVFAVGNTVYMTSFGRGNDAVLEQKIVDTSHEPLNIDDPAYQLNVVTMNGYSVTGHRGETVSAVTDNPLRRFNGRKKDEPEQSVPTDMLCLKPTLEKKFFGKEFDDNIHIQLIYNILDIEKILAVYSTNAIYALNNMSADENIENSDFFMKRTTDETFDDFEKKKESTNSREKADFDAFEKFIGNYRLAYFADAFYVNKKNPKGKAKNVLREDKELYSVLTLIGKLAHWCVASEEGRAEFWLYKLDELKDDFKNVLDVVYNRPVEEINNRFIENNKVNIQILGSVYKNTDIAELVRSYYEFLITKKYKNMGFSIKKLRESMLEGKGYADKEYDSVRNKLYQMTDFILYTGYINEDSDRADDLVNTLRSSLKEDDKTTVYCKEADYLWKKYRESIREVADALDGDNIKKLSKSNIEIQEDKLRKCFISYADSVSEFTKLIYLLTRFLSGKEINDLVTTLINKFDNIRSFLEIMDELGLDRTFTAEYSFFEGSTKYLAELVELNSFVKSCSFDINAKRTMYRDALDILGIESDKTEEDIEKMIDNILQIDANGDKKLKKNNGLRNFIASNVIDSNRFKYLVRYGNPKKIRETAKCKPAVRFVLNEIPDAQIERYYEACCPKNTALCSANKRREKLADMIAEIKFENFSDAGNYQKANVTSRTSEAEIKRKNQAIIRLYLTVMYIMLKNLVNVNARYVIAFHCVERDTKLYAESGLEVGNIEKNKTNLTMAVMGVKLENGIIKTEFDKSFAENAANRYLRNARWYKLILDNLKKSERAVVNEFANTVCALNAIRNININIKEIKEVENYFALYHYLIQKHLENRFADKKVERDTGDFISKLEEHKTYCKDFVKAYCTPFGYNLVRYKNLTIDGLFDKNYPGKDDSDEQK
Assay: crRNA (strand 1, pre-loaded); Mg2+; 40 mM Tris-HCl pH 7.5, 150 mM NaCl, 6 mM MgCl2, 1 mM DTT, 0.1% Tween-20, 0.2 mg/ml BSA; 25 C; 10 min per concentration, then washed
Conditions: tags: His6-TwinStrep-SUMO cleaved; N-terminal SNAP kept (SNAP-Surface 488); label: 3' end held by stalled T7 RNA polymerase

B1: target 2 MT 5'PFS AUG 3'PFS CCG (mixed)
RNA 1: CACCCGUGCAAAAUUGCAGGGGUCUAAAACCUUCUCCAAAUUGUUUCAUCCU
RNA 2: GGGAAUGGAUCCACAUCUACGAAUUCAUGAGGAUGAAACAAUUUGGAGAAGCCGAGAUCGGAAGAGCACACGU
Kd: 9.5 ± 1.1 nM

B2: target 2 MT 5'PFS AUG 3'PFS CCA (mixed)
RNA 1: CACCCGUGCAAAAUUGCAGGGGUCUAAAACCUUCUCCAAAUUGUUUCAUCCU
RNA 2: GGGAAUGGAUCCACAUCUACGAAUUCAUGAGGAUGAAACAAUUUGGAGAAGCCAAGAUCGGAAGAGCACACGU
Kd: 23.7 ± 3.5 nM

B3: target 2 MT 5'PFS UGC 3'PFS CGG (mixed)
RNA 1: CACCCGUGCAAAAUUGCAGGGGUCUAAAACCUUCUCCAAAUUGUUUCAUCCU
RNA 2: GGGAAUGGAUCCACAUCUACGAAUUCUGCAGGAUGAAACAAUUUGGAGAAGCGGAGAUCGGAAGAGCACACGU
Kd: 38 ± 6 nM

B4: target 2 MT 5'PFS GGG 3'PFS UAU (mixed)
RNA 1: CACCCGUGCAAAAUUGCAGGGGUCUAAAACCUUCUCCAAAUUGUUUCAUCCU
RNA 2: GGGAAUGGAUCCACAUCUACGAAUUCGGGAGGAUGAAACAAUUUGGAGAAGUAUAGAUCGGAAGAGCACACGU
Kd: 9.6 ± 1 nM

B5: target 2 MT 5'PFS UAU 3'PFS AUA (mixed)
RNA 1: CACCCGUGCAAAAUUGCAGGGGUCUAAAACCUUCUCCAAAUUGUUUCAUCCU
RNA 2: GGGAAUGGAUCCACAUCUACGAAUUCUAUAGGAUGAAACAAUUUGGAGAAGAUAAGAUCGGAAGAGCACACGU
Kd: 41 ± 7 nM

B6: target 2 MT 5'PFS UAG 3'PFS AUU (mixed)
RNA 1: CACCCGUGCAAAAUUGCAGGGGUCUAAAACCUUCUCCAAAUUGUUUCAUCCU
RNA 2: GGGAAUGGAUCCACAUCUACGAAUUCUAGAGGAUGAAACAAUUUGGAGAAGAUUAGAUCGGAAGAGCACACGU
Kd: 2.93 ± 0.34 nM

B7: target 2 MT 5'PFS UGC 3'PFS CGC (mixed)
RNA 1: CACCCGUGCAAAAUUGCAGGGGUCUAAAACCUUCUCCAAAUUGUUUCAUCCU
RNA 2: GGGAAUGGAUCCACAUCUACGAAUUCUGCAGGAUGAAACAAUUUGGAGAAGCGCAGAUCGGAAGAGCACACGU
Kd: 66 ± 11 nM

B8: target 2 MT 5'PFS UGC 3'PFS CGA (mixed)
RNA 1: CACCCGUGCAAAAUUGCAGGGGUCUAAAACCUUCUCCAAAUUGUUUCAUCCU
RNA 2: GGGAAUGGAUCCACAUCUACGAAUUCUGCAGGAUGAAACAAUUUGGAGAAGCGAAGAUCGGAAGAGCACACGU
Kd: ~48 nM

B9: target 2 MT 5'PFS GUG 3'PFS CGU (mixed)
RNA 1: CACCCGUGCAAAAUUGCAGGGGUCUAAAACCUUCUCCAAAUUGUUUCAUCCU
RNA 2: GGGAAUGGAUCCACAUCUACGAAUUCGUGAGGAUGAAACAAUUUGGAGAAGCGUAGAUCGGAAGAGCACACGU
Kd: 14.7 ± 1.3 nM

B10: target 2 MT 5'PFS UAU 3'PFS AUU (mixed)
RNA 1: CACCCGUGCAAAAUUGCAGGGGUCUAAAACCUUCUCCAAAUUGUUUCAUCCU
RNA 2: GGGAAUGGAUCCACAUCUACGAAUUCUAUAGGAUGAAACAAUUUGGAGAAGAUUAGAUCGGAAGAGCACACGU
Kd: 24.8 ± 2.3 nM

B11: target 2 MT 5'PFS GAA 3'PFS CGC (mixed)
RNA 1: CACCCGUGCAAAAUUGCAGGGGUCUAAAACCUUCUCCAAAUUGUUUCAUCCU
RNA 2: GGGAAUGGAUCCACAUCUACGAAUUCGAAAGGAUGAAACAAUUUGGAGAAGCGCAGAUCGGAAGAGCACACGU
Kd: 7.4 ± 0.5 nM

B12: target 2 MT 5'PFS UAU 3'PFS AUG (mixed)
RNA 1: CACCCGUGCAAAAUUGCAGGGGUCUAAAACCUUCUCCAAAUUGUUUCAUCCU
RNA 2: GGGAAUGGAUCCACAUCUACGAAUUCUAUAGGAUGAAACAAUUUGGAGAAGAUGAGAUCGGAAGAGCACACGU
Kd: 45 ± 9 nM

B13: target 2 MT 5'PFS AAU 3'PFS AAA (mixed)
RNA 1: CACCCGUGCAAAAUUGCAGGGGUCUAAAACCUUCUCCAAAUUGUUUCAUCCU
RNA 2: GGGAAUGGAUCCACAUCUACGAAUUCAAUAGGAUGAAACAAUUUGGAGAAGAAAAGAUCGGAAGAGCACACGU
Kd: 3.2 ± 0.5 nM

B14: target 2 MT 5'PFS AAU 3'PFS AAC (mixed)
RNA 1: CACCCGUGCAAAAUUGCAGGGGUCUAAAACCUUCUCCAAAUUGUUUCAUCCU
RNA 2: GGGAAUGGAUCCACAUCUACGAAUUCAAUAGGAUGAAACAAUUUGGAGAAGAACAGAUCGGAAGAGCACACGU
Kd: 5.2 ± 0.8 nM

B15: target 2 MT 5'PFS GCU 3'PFS CUG (mixed)
RNA 1: CACCCGUGCAAAAUUGCAGGGGUCUAAAACCUUCUCCAAAUUGUUUCAUCCU
RNA 2: GGGAAUGGAUCCACAUCUACGAAUUCGCUAGGAUGAAACAAUUUGGAGAAGCUGAGAUCGGAAGAGCACACGU
Kd: 30 ± 11 nM

B16: target 2 MT 5'PFS GUG 3'PFS CGA (mixed)
RNA 1: CACCCGUGCAAAAUUGCAGGGGUCUAAAACCUUCUCCAAAUUGUUUCAUCCU
RNA 2: GGGAAUGGAUCCACAUCUACGAAUUCGUGAGGAUGAAACAAUUUGGAGAAGCGAAGAUCGGAAGAGCACACGU
Kd: 12.8 ± 1.6 nM

B17: target 2 MT 5'PFS AAU 3'PFS AAG (mixed)
RNA 1: CACCCGUGCAAAAUUGCAGGGGUCUAAAACCUUCUCCAAAUUGUUUCAUCCU
RNA 2: GGGAAUGGAUCCACAUCUACGAAUUCAAUAGGAUGAAACAAUUUGGAGAAGAAGAGAUCGGAAGAGCACACGU
Kd: 5.5 ± 0.9 nM

B18: target 2 MT 5'PFS AAU 3'PFS CCA (mixed)
RNA 1: CACCCGUGCAAAAUUGCAGGGGUCUAAAACCUUCUCCAAAUUGUUUCAUCCU
RNA 2: GGGAAUGGAUCCACAUCUACGAAUUCAAUAGGAUGAAACAAUUUGGAGAAGCCAAGAUCGGAAGAGCACACGU
Kd: 24 ± 12 nM

B19: target 2 MT 5'PFS GAA 3'PFS CGG (mixed)
RNA 1: CACCCGUGCAAAAUUGCAGGGGUCUAAAACCUUCUCCAAAUUGUUUCAUCCU
RNA 2: GGGAAUGGAUCCACAUCUACGAAUUCGAAAGGAUGAAACAAUUUGGAGAAGCGGAGAUCGGAAGAGCACACGU
Kd: 9.6 ± 1.5 nM

B20: target 2 MT 5'PFS GAA 3'PFS CGA (mixed)
RNA 1: CACCCGUGCAAAAUUGCAGGGGUCUAAAACCUUCUCCAAAUUGUUUCAUCCU
RNA 2: GGGAAUGGAUCCACAUCUACGAAUUCGAAAGGAUGAAACAAUUUGGAGAAGCGAAGAUCGGAAGAGCACACGU
Kd: 9.2 ± 1.7 nM

B21: target 2 MT 5'PFS UGA 3'PFS CAC (mixed)
RNA 1: CACCCGUGCAAAAUUGCAGGGGUCUAAAACCUUCUCCAAAUUGUUUCAUCCU
RNA 2: GGGAAUGGAUCCACAUCUACGAAUUCUGAAGGAUGAAACAAUUUGGAGAAGCACAGAUCGGAAGAGCACACGU
Kd: 15 ± 4 nM

B22: target 2 MT 5'PFS GUG 3'PFS CGG (mixed)
RNA 1: CACCCGUGCAAAAUUGCAGGGGUCUAAAACCUUCUCCAAAUUGUUUCAUCCU
RNA 2: GGGAAUGGAUCCACAUCUACGAAUUCGUGAGGAUGAAACAAUUUGGAGAAGCGGAGAUCGGAAGAGCACACGU
Kd: 12.5 ± 1 nM

B23: target 2 MT 5'PFS GUG 3'PFS CGC (mixed)
RNA 1: CACCCGUGCAAAAUUGCAGGGGUCUAAAACCUUCUCCAAAUUGUUUCAUCCU
RNA 2: GGGAAUGGAUCCACAUCUACGAAUUCGUGAGGAUGAAACAAUUUGGAGAAGCGCAGAUCGGAAGAGCACACGU
Kd: 9.5 ± 0.4 nM

B24: target 2 MT 5'PFS CAG 3'PFS CCA (mixed)
RNA 1: CACCCGUGCAAAAUUGCAGGGGUCUAAAACCUUCUCCAAAUUGUUUCAUCCU
RNA 2: GGGAAUGGAUCCACAUCUACGAAUUCCAGAGGAUGAAACAAUUUGGAGAAGCCAAGAUCGGAAGAGCACACGU
Kd: 10.1 ± 1.4 nM

B25: target 1 insG 3' of 20,insU 3' of 7 (mixed)
RNA 1: CACCCGUGCAAAAAUGCAGGGGUCUAAAACUGAGCGGAUAACCUCUCUAUGG
RNA 2: GGGAAUGGAUCCACAUCUACGAAUUCGUACCAGUAGAGAGGUUAUCUCGCUCACCGAGAUCGGAAGAGCACACGU
Kd: 90 ± 40 nM

B26: target 1 U3A,C7G (mixed)
RNA 1: CACCCGUGCAAAAAUGCAGGGGUCUAAAACUGAGCGGAUAACCUCUCUAUGG
RNA 2: GGGAAUGGAUCCACAUCUACGAAUUCGUACCAUAGAGAGGUUAUGCGCACACCGAGAUCGGAAGAGCACACGU
Kd: 6.64 ± 0.29 nM

B27: target 1 insU 3' of 13,insG 3' of 7 (mixed)
RNA 1: CACCCGUGCAAAAAUGCAGGGGUCUAAAACUGAGCGGAUAACCUCUCUAUGG
RNA 2: GGGAAUGGAUCCACAUCUACGAAUUCGUACCAUAGAGAGUGUUAUCGCGCUCACCGAGAUCGGAAGAGCACACGU
Kd: 9.5 ± 0.5 nM

B28: target 1 complement block 1-14 (mixed)
RNA 1: CACCCGUGCAAAAAUGCAGGGGUCUAAAACUGAGCGGAUAACCUCUCUAUGG
RNA 2: GGGAAUGGAUCCACAUCUACGAAUUCGUACCAUAGAGUCCAAUAGGCGAGUCCGAGAUCGGAAGAGCACACGU
Kd: ~100 nM
